{"source": "paper PMC10657439", "about": "(Cell Death and Differentiation, 2023)", "molecules": {"B1": {"name": "DB-FasL (protein)", "chain": "PSPPPEKKELRKVAHLTGKSNSRSMPLEWEDTYGIVLLSGVKYKKGGLVINETGLYFVYSKVYFRGQSCNNLPLSHKVYMRNSKYPQDLVMMEGKMMSYCTTGQMWARSSYLGAVFNLTSADHLYVNVSELSLVNFEESQTFFGLYKL", "modifications": "Wild-type FasL ectodomain fused to the C-terminus (CH3) of the idarucizumab (anti-dabigatran) IgG1 heavy chain, one FasL per heavy chain. The IgG carrier and linker are left out because they do not bind Fas. Limits are taken from the sister constructs His-FasL WT and E09-FasL WT printed in the tables (PSPPPEKKEL...GLYKL)."}, "B2": {"name": "E09 IgG1 (preclinical Fas agonist antibody) (antibody, V domains shown)", "VH": "QLQLQESGPGLVKPSETLSLTCTVSGASISANSYYGVWVRQSPGKGLEWVGSIAYRGNSNSGSTYYNPSLKSRATVSVDTSKNQVSLRLTSVTAADTALYYCARRQLLDDGTGYQWAAFDVWGQGTMVTVSS", "VL": "QSVLTQPPSVSEAPRQTVTISCSGNSFNIGRYPVNWYQQLPGKAPKLLIYYNNLRFSGVSDRFSGSKSGTSASLAIRDLLSEDEADYYCSTWDDTLKGWVFGGGTKVTVLG"}, "B3": {"name": "His_FasL^WT (N-terminal His-tagged human FasL, wild type) (ligand)", "chain": "GGSPSPPPEKKELRKVAHLTGKSNSRSMPLEWEDTYGIVLLSGVKYKKGGLVINETGLYFVYSKVYFRGQSCNNLPLSHKVYMRNSKYPQDLVMMEGKMMSYCTTGQMWARSSYLGAVFNLTSADHLYVNVSELSLVNFEESQTFFGLYKL", "notes": "linker between the His tag and FasL; also called WT FasL; His-tagged FasL; source: FreeStyle CHO-S cells, transfected, purified (Ni-Sepharose HisTrap); not shown: His7, N-terminal, kept"}, "B4": {"name": "His_FasL^D164A (printed as His_FasL^D163A in Table 1) (ligand, human)", "chain": "B3 chain with D34A", "notes": "linker between the His tag and FasL; source: FreeStyle CHO-S cells, transfected, purified (Ni-Sepharose HisTrap); not shown: His7, N-terminal, kept"}, "B5": {"name": "His_FasL^E163A (ligand, human)", "chain": "B3 chain with E33A", "notes": "linker between the His tag and FasL; also called A163; source: FreeStyle CHO-S cells, transfected, purified (Ni-Sepharose HisTrap); not shown: His7, N-terminal, kept"}, "B6": {"name": "His_FasL^E270A (ligand, human)", "chain": "B3 chain with E140A", "notes": "as for B4"}, "B7": {"name": "His_FasL^E271A (ligand, human)", "chain": "B3 chain with E141A", "notes": "linker between the His tag and FasL; also called A271; source: FreeStyle CHO-S cells, transfected, purified (Ni-Sepharose HisTrap); not shown: His7, N-terminal, kept"}, "B8": {"name": "His_FasL^R156G (ALPS mutation) (ligand, human)", "chain": "B3 chain with R26G", "notes": "as for B4"}, "B9": {"name": "His_FasL^WT-A247E (tandem: wild-type FasL unit and A247E unit) (ligand, human)", "chain": "GGSPSPPPEKKELRKVAHLTGKSNSRSMPLEWEDTYGIVLLSGVKYKKGGLVINETGLYFVYSKVYFRGQSCNNLPLSHKVYMRNSKYPQDLVMMEGKMMSYCTTGQMWARSSYLGAVFNLTSADHLYVNVSELSLVNFEESQTFFGLYKLGGGSGGGSGGGSPSPPPEKKELRKVAHLTGKSNSRSMPLEWEDTYGIVLLSGVKYKKGGLVINETGLYFVYSKVYFRGQSCNNLPLSHKVYMRNSKYPQDLVMMEGKMMSYCTTGQMWARSSYLGEVFNLTSADHLYVNVSELSLVNFEESQTFFGLYKL", "notes": "linker between the His tag and the first FasL unit; linker between the two FasL units; source: CHO expression system, purified (HisTrap Ni Sepharose); not shown: His7, N-terminal, kept"}, "B10": {"name": "His_FasL^WT-G277S (tandem: wild-type FasL unit and G277S unit) (ligand, human)", "chain": "B9 chain with E277A, G307S", "notes": "as for B9"}}, "key": {"[1]": {"molecular_target": "Fas (CD95), endogenous on human cells (human (endogenous in OVCAR3, Jurkat, PBMC-derived T cells)) (UniProt P25445)"}, "His-Fas^R87A (human)": {"molecular_target": "His-Fas^R87A (human)", "assay": "ELISA"}, "[2]": {"molecular_target": "Fas R86A mutant tested for E09 binding (human) (UniProt P25445)", "assay": "ELISA"}, "[3]": {"molecular_target": "His-Fas (His-tagged human Fas extracellular domain, wild type) (human)", "assay": "ELISA"}, "[4]": {"molecular_target": "T1, His-Fas (His-tagged human Fas extracellular domain, wild type) (human)", "T1 chain": "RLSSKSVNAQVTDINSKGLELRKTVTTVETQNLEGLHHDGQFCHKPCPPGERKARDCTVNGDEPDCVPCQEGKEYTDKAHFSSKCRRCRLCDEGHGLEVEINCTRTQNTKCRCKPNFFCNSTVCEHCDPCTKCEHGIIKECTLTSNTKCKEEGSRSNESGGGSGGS", "assay": "BLI"}, "[5]": {"molecular_target": "T1, His-Fas (His-tagged human Fas …)", "assay": "BLI"}, "[6]": {"molecular_target": "the molecule itself", "assay": "non-reducing, partially denaturing SDS-PAGE with anti-His immunoblot; purified His-tagged FasL added to Jurkat cells in culture wells, 30 min; soup and total lysates together; FasL trimer formation"}, "[7]": {"molecular_target": "T2, Fc-tagged Fas (recombinant extracellular domain of Fas with a C-terminal Fc) (human, UniProt P25445 26-173)", "T2 construct": "human Fas (CD95) extracellular domain; also called Fas-IgG1 Fc; IgG4-Fc-tagged Fas; source: FreeStyle CHO-S cells, purified (protein A columns); not shown: Fc (IgG4 in the methods, IgG1 in the results), C-terminal, kept", "T2 sequence (looked up)": "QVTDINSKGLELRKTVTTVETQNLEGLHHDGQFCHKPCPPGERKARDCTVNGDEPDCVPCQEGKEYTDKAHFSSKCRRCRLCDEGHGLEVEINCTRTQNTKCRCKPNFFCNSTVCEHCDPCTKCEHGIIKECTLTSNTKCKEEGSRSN", "assay": "ELISA; Fc-tagged Fas (2 μg/ml) coated on 96-well plates; His-tagged FasL (single or tandem) in 2-fold dilutions from 50 to 0.048 nM, 1 h at 37 °C", "conditions": "both partners purified"}}, "note": "Residue numbers refer to the chain shown, from its start. Names and notes keep the numbering of the source.", "data": [{"molecule": "His_FasL^TL1A (His-tagged FasL with the cognate region of TL1A, DTYGIV to HELGLA) (ligand)", "values": [{"measurement": "cytotoxic activity against T cells (cell survival assay, Fig. 3F, G)", "setting": "[1]", "value": "> 70", "unit": "%"}]}, {"molecule": "CH11 IgG1", "values": [{"measurement": "Kd", "setting": "His-Fas^R87A (human)", "value": 2.2, "unit": "nM"}, {"measurement": "Kd", "setting": "[2]", "value": 2.02, "unit": "nM"}, {"measurement": "Kd", "setting": "[3]", "value": 0.983, "unit": "nM"}]}, {"molecule": "B1", "values": [{"measurement": "Kd", "setting": "[4]", "value": 60.6, "unit": "nM"}, {"measurement": "koff", "setting": "[5]", "value": 0.0049, "unit": "s⁻¹"}]}, {"molecule": "B2", "values": [{"measurement": "Kd", "setting": "[4]", "value": 0.377, "unit": "nM"}]}, {"molecule": "B3", "values": [{"measurement": "stoichiometry N", "setting": "[6]", "value": 3}, {"measurement": "binding result", "setting": "[7]", "value": "binds"}]}, {"molecule": "B4", "values": [{"measurement": "binding result", "setting": "[7]", "value": "binds"}]}, {"molecule": "B5", "values": [{"measurement": "stoichiometry N", "setting": "[6]", "value": 3}]}, {"molecule": "B6", "values": [{"measurement": "binding result", "setting": "[7]", "value": "binds"}]}, {"molecule": "B7", "values": [{"measurement": "stoichiometry N", "setting": "[6]", "value": 3}]}, {"molecule": "B8", "values": [{"measurement": "binding result", "setting": "[7]", "value": "binds"}]}, {"molecule": "B9", "values": [{"measurement": "binding result", "setting": "[7]", "value": "binds"}]}, {"molecule": "B10", "values": [{"measurement": "binding result", "setting": "[7]", "value": "binds"}]}]}
